Test results taken from the Human Domainome abundance scans (Beltran et al. 2025).

B1: CD2-associated protein, residues 271 to 331; numbered along this chain, Q9Y5K6 (parent)
chain: KEYCRTLFAYEGTNEDELTFKEGEIIHLISKETGEAGWWRGELNGKEGVFPDNFAVQINEL
B2: Protein piccolo, residues 1058 to 1114; numbered along this chain, Q9Y6V0 (parent)
chain: TCPLCKTELNIGSKDPPNFNTCTECKNQVCNLCGFNPTPHLTEIQEWLCLNCQTQRA

Variants of: B1
Experiment: abundance fitness (aPCA) (normalised: wild type 0, dead -1); higher = more abundant; growth selection in yeast, the domain comes from the species named
Conditions: Homo sapiens

Abundance fitness, by site and new letter:
R5: G -0.868 | S -0.49 | Q -0.37 | D -0.764 | E -0.154 | N -0.601 | A -0.426 | P -0.978 | I -0.527 | W -0.689 | F -0.487 | H -0.461 | K 0.182 | L -0.383 | T -0.34 | V -0.439
T6: K -0.607 | E -0.698 | V -0.844 | C -0.614 | Q -0.68 | F -0.889 | G -0.528 | N -0.926 | D -0.963 | L -0.88 | H -0.695 | P -0.605 | W -1.15 | S -0.103 | I -0.5 | Y -0.621 | A -0.014 | R -0.682 | M -0.474
T13: A 0.066 | D -0.185 | C 0.038
Y3: W -0.661 | Q -0.775 | H -0.278 | F 0.001 | K -0.748 | M -0.372 | D -0.555 | G -0.611 | P -0.75 | A -0.369 | T -0.608 | L -0.131 | E -0.567 | V -0.537 | S -0.26 | N -0.292
K1: R -0.277 | T -0.394 | D -0.364 | C -0.629 | Y -0.656 | F -0.337 | E -0.083 | M -0.154 | V -0.332 | L -0.296 | W -0.543 | Q -0.343 | I -0.245 | N -0.384 | A -0.529 | S -0.229 | H -0.489 | G -0.223
C4: R -0.62 | S -0.791 | M -0.23 | V -0.354 | F -0.007 | W -0.301 | T -0.714 | E -1.09 | H -1.07 | K -0.64 | Q -0.9 | G -0.707 | L -0.046 | D -1.04 | A -0.591 | I -0.113
L7: R -0.276 | H -0.674 | C -0.336 | I -0.021 | M -0.113 | F -0.741 | G -0.57 | S -0.107 | Y -0.762 | W -0.539 | V -0.088 | T -0.017 | K -0.174 | P -1.01 | A -0.275 | D -0.426 | E -0.457
E2: G -0.078 | A -0.022 | V -0.222 | D 0.039 | L -0.136 | Q -0.05 | R -0.245 | K -0.084 | N 0.002 | S -0.128 | H 0.049 | F -0.351 | T -0.121 | P -0.306 | W -0.525 | M 0.073
F8: G 0.028 | Y -0.148 | R 0.12 | Q 0.074 | V 0.004 | K 0.128 | H -0.109 | A 0.014 | D -0.311 | P -0.432 | W -0.139 | L -0.064
A9: S 0.029 | D -0.011 | N -0.013 | P -0.084 | G -0.283 | L -0.599 | C -0.129 | M -0.291 | W -0.448 | H -0.076 | R -0.144 | E -0.09 | K -0.077 | F -0.469 | I -0.542 | T -0.268 | Q -0.096 | Y -0.309
E11: V -0.157 | Y -0.19 | Q -0.4 | R -0.263 | F -0.151 | H -0.151 | T -0.216 | L -0.377 | W -0.261 | A -0.234 | I -0.164 | M -0.254 | K -0.095 | P -0.745 | S -0.237 | C -0.256 | D -0.122 | G -0.384
G12: E -0.434 | F -0.687 | D -0.794 | M -0.786 | S -0.113 | N -0.646 | H -0.837 | I -0.887 | W -0.471 | Y -0.759 | V -1.1 | C -0.329 | A 0.036 | T -0.425 | P -0.381 | K -0.224 | L -0.865 | Q -0.513
Y10: H -0.373 | Q -0.439 | A -0.686 | E -0.592 | N -0.831 | G -0.544 | S -0.598 | W -0.209 | V -0.567 | K -0.167 | T -0.864 | I -0.846 | L -0.744 | P -0.79 | F -0.182 | C -0.659

Variants of: B2
Experiment: as above
Conditions: Homo sapiens

Abundance fitness of substitutions, site by site:
N51: F -0.306 | D -0.166 | I -0.566 | V -0.326 | A -0.015 | S -0.247 | M -0.557 | P -0.284 | E -0.099 | G -0.091 | K -0.063 | H -0.146
C52: M -0.981 | G -0.727 | S -0.709 | E -0.448 | Y -0.841 | H -0.273 | A -0.85 | P -1.2 | F -1.06 | T -0.842 | R -0.701 | Q -0.841 | W -1.14 | D -0.755 | N -0.876 | K -0.801
C49: D -0.597 | R -0.782 | L -1 | V -0.849 | A -0.66 | P -0.418 | Y -0.958 | W -0.884 | H -0.761 | Q -0.927 | G -0.934 | I -1.05 | N -0.618 | F -0.793 | T -1.06 | E -1.01
L50: S 0.141 | N 0.019 | P 0.329 | I -0.173 | W -0.215 | G 0.084 | M -0.565 | Y -0.239 | A 0.129 | K 0.078 | D 0.208 | V 0.102 | R 0.182 | T 0.208 | F -0.25 | H 0.145 | E 0.157 | Q 0.15 | C -0.04
Q53: N 0.118 | G -0.016 | C -0.464 | A -0.249 | L -0.386 | M -0.36 | R 0.099 | T -0.067 | E -0.074 | Y -0.23 | F -0.275 | V -0.256 | K 0.115 | D 0.099 | S 0.028 | W -0.383 | I -0.25
L48: V -0.165 | K -0.245 | P -0.318 | T -0.089 | H -0.177 | N -0.063 | R -0.079 | C 0.164 | Q -0.274 | W -0.061 | G -0.355 | A -0.051 | S -0.063 | Y -0.112 | I -0.105 | D -0.297 | E -0.131 | F 0.09 | M -0.312
W47: Y -0.493 | G 0.056 | F -0.065 | T -0.195 | P -0.039 | L 0.056 | I -0.049 | Q -0.09 | S -0.03 | H -0.135 | D 0.006 | M -0.06 | N -0.354 | K -0.111 | C -0.134 | E 0.031
T54: Y -0.369 | A 0.049 | K 0.196 | C -0.182 | M -0.602 | W -0.441 | Q 0.214 | P 0.156 | G 0.046 | N 0.296 | F -0.79 | H -0.076 | I -0.37 | V -0.198 | L -0.531 | E 0.231
